Changes are numbered by the printed parent chain.
B1: BTN2A1 271-527 (protein)
chain: KLQKEKKILSGEKEFERETREIALKELEKERVQKEEELQVKEKLQEEGRARRTFLHAVDVVLDPDTAHPDLFLSEDRRSVRRCPFRHLGESVPDNPERFDSQPCVLGRESFASGKHYWEVEVENVIEWTVGVCRDSVERKGEVLLIPQNGFWTLEMHKGQYRAVSSPDRILPLKESLCRVGVFLDYEAGDVSFYNMRDRSHIYTCPRSAFSVPVRPFFRLGCEDSPIFICPALTGANGVTVPEEGLTLHRVGTHQSL
B2: BTN2A1 271-527 (protein)
chain: B1 chain with A50W
B3: BTN2A1 271-527 (protein)
chain: B1 chain with G48L

These binders were tested against BTN3A1 272-513 (Homo sapiens, UniProt O00481) (assay: ITC).
Chain of BTN3A1 272-513 (O00481 272-513): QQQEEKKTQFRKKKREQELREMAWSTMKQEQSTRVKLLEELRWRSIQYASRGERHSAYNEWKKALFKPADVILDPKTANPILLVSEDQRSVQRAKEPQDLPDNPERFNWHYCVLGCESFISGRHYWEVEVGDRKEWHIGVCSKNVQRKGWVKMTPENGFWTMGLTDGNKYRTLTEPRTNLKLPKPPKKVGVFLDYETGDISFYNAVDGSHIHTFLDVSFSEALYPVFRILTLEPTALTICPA

Binder	Kd [nM]
B1	710
B2	1160
B3	670
